# Test system: IgG1-DS5 (human IgG1/kappa framework, scFv phage library derived)
# Assay: ELISA
# Settings: 2'-O-methyl; 3' azide on strand 2; ELISA: streptavidin or anti-FAM plates, PBS/0.05% Tween 20 washes, BSA or Blotto block; EMSA: PBS, 1 h, room temperature, 20 uM oligo, 25 ng/uL IgG, 5% …
row,Sequence,binding signal (% of full complex ELISA slope)
1,UUUUUCCUGUGUCCUGAAGAAAGCAAAGACAUCUGGACAU / GUCCAGAUGUCUUUGC [D2 template:azide-haplomer-2],0

# Same assay, conditions: 2'-O-methyl; ELISA: streptavidin or anti-FAM plates, PBS/0.05% Tween 20 washes, BSA or Blotto block; EMSA: PBS, 1 h, room temperature, 20 uM oligo, 25 ng/uL IgG, 5% …
Sequence,binding signal (% of T2 ELISA slope),binding signal (% of full complex ELISA slope)
UUUCUGAAGAAAUUUCCUGUGUC / UUUCUUCAG [T10 TempFlp:9-co],0,–
UUUUUCCUGUGUCACAAUAGAG / CUCUAUUGU [T9 TempTr8:complementary 9-mer],0,–
UUUUUCCUGUGUCCUGAAGAAA / UUUCUUCAG [T3 TempTr2:9-co],–,100
UUUUUCCUGUGUCCUGAAGAAAGCA / UUUCUUCAG [T2 TempTr1:9-co],–,100
UUUUUCCUGUGUCCUGAAGAAAGCA / UUUCUUCAGGACACAG [T1 TempTr1:oligo-1],–,100
UUUUUCCUGUGUCCUGAAGAAAGCAAAGACAUCUGGACAU / AUGUCUUUGCUUUCUUCAGG [D6 template:contig. complement-1],–,0.8
UUUUUCCUGUGUCCUGAAGAAAGCAAAGACAUCUGGACAU / GUCCAGAUGUCUUUGC [D4 template:oligo-2],–,0
UUUUUCCUGUGUCCUGAAGAAAGCAAAGACAUCUGGACAU / UUUCUUCAGGACACAG / GUCCAGAUGUCUUUGC [D5 template:oligo-1:oligo-2],–,45
UUUUUCCUGUGUCCUGAAGAAAGCAAAGACAUCUGGACAU / UUUCUUCAGGACACAG [D3 template:oligo-1],–,76.1
UUUUUCGUGUGUGCUGAAGAAA / UUUCUUCAG [T8 TempTr7:9-co],0,–
UUUUUCUCUCUGGCUGAAGAAA / UUUCUUCAG [T5 TempTr4:9-co],0,–
UUUUUCUGAAGAA / UUUCUUCAG [T4 TempTr3:9-co],0,–

# Test system: IgG1-DS5 (human IgG1/kappa framework, scFv phage library derived)
# Assay: SPR steady state
# Settings: 2'-O-methyl; ELISA: streptavidin or anti-FAM plates, PBS/0.05% Tween 20 washes, BSA or Blotto block; EMSA: PBS, 1 h, room temperature, 20 uM oligo, 25 ng/uL IgG, 5% …
row,Sequence,Kd
1,UUUUUCCUGUGUCCUGAAGAAAGCA / UUUCUUCAG [T2 duplex without biotin],440 nM

# Same assay, conditions: all 2'-O-methyl, 5' BCN on strand 2, 3' azide on strand 3, reacting to triazole, ELISA: streptavidin or anti-FAM plates, PBS/0.05% Tween 20 washes, BSA or Blotto block, EMSA: PBS, 1 h, room temperature, 20 uM oligo, 25 ng/uL IgG
row,Sequence,Kd
1,UUUUUCCUGUGUCCUGAAGAAAGCAAAGACAUCUGGACAU / UUUCUUCAGGACACAG / GUCCAGAUGUCUUUGC [Temp1:BCN-haplomer-1:azide-haplomer-2 complex],330 nM

# Source: article PMC12833424
